Reference: patent US20230151095A1 (Xencor, published 2023)

Molecular target: T1, NKG2D (human, UniProt P26718 78-216, limits assumed)
T1 construct: XENP25379 (human) and XENP25380 (cynomolgus) were the panning antigens; also called Recombinant human NKG2D (XENP25379); CD314
T1 sequence (looked up): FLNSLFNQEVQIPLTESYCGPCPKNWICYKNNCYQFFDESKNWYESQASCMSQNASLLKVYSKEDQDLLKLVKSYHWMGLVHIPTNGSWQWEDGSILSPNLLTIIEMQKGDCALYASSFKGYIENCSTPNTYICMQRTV
Experiment: ELISA of phage clones on NKG2D

binding result: binds
B1: 1D2B4[NKG2D] (antibody, V domains shown)
VH: EVQLLESGGGLVQPGGSLRLSCAASGFTFSSFGMSWVRQAPGKGLEWVSTISGSGSTTYYADSVKGRFTISRDNSKNTLYLQMNSLRAEDTAVYYCAKGVFSEWHYYFDYWGQGTLVTVSS
VL: not shown
